From PMC3498381, “Isolated Toll-like Receptor Transmembrane Domains Are Capable of Oligomerization” (PLoS ONE, 2012) come the findings set out here.

First the molecules themselves.
B1: TLR1 transmembrane domain (ToxR chimera) (domain or fragment)
chain: GNRASITLLIVTIVATMLVLAVTVTSLCSYLGSLIN
notes: flank encoded by the reading frame of the plasmid construct; Toll-like receptor 1 transmembrane domain, human, as identified by hydrophobic analysis; One molecule for the ToxR and the ToxR* form of this TMD; also called TLR1 TMD; source: E. coli FHK12, transformed with pTox7 or pTox6 plasmid, in the cells' membrane
B2: TLR6 transmembrane domain (ToxR chimera) (domain or fragment)
chain: GNRASITLLIVTIGATMLVLAVTVTSLCIYLGSLIN
notes: flank encoded by the reading frame of the plasmid construct; Toll-like receptor 6 transmembrane domain, human, as identified by hydrophobic analysis; One molecule for the ToxR and the ToxR* form of this TMD; also called TLR6 TMD; source: E. coli FHK12, transformed with pTox7 or pTox6 plasmid, in the cells' membrane
B6: TLR2 transmembrane domain (ToxR chimera) (domain or fragment)
chain: GNRASALVSGMCCALFLLILLTGVLCGSLIN
notes: flank encoded by the reading frame of the plasmid construct; Toll-like receptor 2 transmembrane domain, human, as identified by hydrophobic analysis; One molecule for the ToxR and the ToxR* form of this TMD; also called TLR2 TMD; wild type TLR2 TMD; source: E. coli FHK12, transformed with pTox7 or pTox6 plasmid, in the cells' membrane

Assay [1] concerns homotypic TMD-TMD interaction (ToxR / ctx promoter / β-galactosidase reporter in FHK12 E. coli). Kind of assay: Homotypic ToxR reporter assay (β-galactosidase). It is filed as cell-based. Conditions: homotypic ToxR assay, compared with wild type TLR2 TMD (Fig. 7A). The method, then:
. Various plasmid constructs for this assay make it possible to monitor both homotypic and heterotypic interactions that are driven by TMD-TMD association (Fig. S1).
We first investigated homotypic interactions because the majority of the TLR family members function as homodimers. […] This ΔTM construct consists of the same maltose binding protein and ToxR domain, but lacks a TMD for proper membrane insertion (Fig. S2). Statistical analysis using the Tukey-Kramer test was performed to analyze any significant differences between all possible pairs of average interaction potentials (Table S2). […] Among the TLRs, no discernable differences in grouping based on statistical analysis at p = 0.05 were indicated as all receptors belonged to multiple groups, except for TLR1, which with the lowest interaction potential among the family of receptors only existed in one group (Table S1).
Figure 2 Toll-like Receptor Transmembrane Domain Homotypic Interactions. (A) The ToxR assay was used to study homotypic interactions of the TLR TMDs. A chimeric protein expressing the TMD of interest was monitored through β-galactosidase activity. In all cases, we saw that the TLRs have interaction potential solely from TMD-TMD interactions. Each TLR TMD interaction measurement analysis was performed on 3 technical replicates with >6 measurements for each replicate. Error bars depict the standard error of the mean (n – Table S1). Western blots staining for MBP were performed to monitor expression levels of the constructs – (B) chimeric maltose binding protein expression, (C) endogenous maltose binding protein expression. All samples were normalized to the GpA signal and expression levels.
Briefly, the ToxR plasmids containing the TMD of interest (200 ng) were transformed into chemically competent FHK12 E. coli (200 µL) by incubating on ice for 30 min, heat shock at 42°C for 90 s, incubation on ice for 2 min, and addition of SOC media (800 µL) followed by incubation with shaking for 1 h at 37°C. This transformation mixture (50 µL) was then spread on LB agar plates containing cholaramphenicol (30 µg/mL) and ampicillin (100 µg/mL) and grown overnight at 37°C. Single colonies were selected from the plates in triplicate and added to 5 mL of LB media containing cholaramphenicol (30 µg/mL), ampicillin (100 µg/mL), and arabinose (0.0025%). These cultures were incubated overnight (16–20 h) with shaking at 37°C. The β-galactosidase activity was monitored using a Beckman Coulter DTX 880 plate-reader. First 5 µL of each culture was plated >6 times in a clear 96-well flat bottom culture plate (Sarstedt) containing 100 µL of Z-buffer/chloroform (1% β-mercaptoethanol, 10% chloroform, 89% Z buffer: […], 10 mM potassium chloride, 1 mM magnesium sulfate, pH 7.0). The cell densities of each well were recorded by measuring the OD595. Bacteria were lysed by the addition of 50 µL Z-buffer/SDS (1.6% sodium dodecyl sulfate w/v in Z-buffer) and shaking at 28°C for 10 min. Enzymatic activity was measured by adding 50 µL of Z-buffer/ortho-Nitrophenyl-β-[…] (ONPG) (0.4% ONPG w/v in Z-buffer) and monitoring the reaction at 405 nm for a period of 20 min at 30 s intervals. Miller units were calculated using the equation: [drawing 1]
Western blotting was performed with antiserum recognizing the maltose-binding protein moiety of the constructs (Abcam). Data were normalized to GpA Miller Units and protein expression levels using ImageJ (NIH) as reported previously.
In general terms: Reporter assays use an easily measured gene product as a stand-in for the process of interest.

In assay [2] the test system is heterotypic interactions of the TLR2 TMD. The experiment in a line: Heterotypic ToxR assay of TLR2 point mutants. It is filed as cell-based, E. coli. Conditions: compared with native TLR2 TMD (Fig. 7B). An excerpt:
To investigate if these residues were involved in the homotypic or heterotypic interactions we performed site-directed mutagenesis at key positions in the TLR2 TMD – Gly593Val, Ala597Val, and Cys609Ile – and tested these mutants in both homotypic and heterotypic ToxR assays.
Figure 7 Toll-like Receptor 2 Interaction Interface Studied by Mutagenesis. TLR2 residues were mutated to study effects on homotypic and heterotypic interactions using the ToxR assay. These mutations were at positions identified in the sequence as likely interaction locations. (A) Homotypic interactions of point mutations show no difference in interaction potential from wild-type TLR2 TMD. (B) Heterotypic interactions of point mutations show the potential importance of both the Ala597 and Cys609 positions for heterotypic interactions. […]
For heterotypic interactions one plasmid containing a functional ToxR domain (200 ng) and a second plasmid containing a non-functional ToxR* domain (200 ng) were co-transformed into chemically competent FHK12 E. coli (400 µL) by incubating on ice for 30 min, heat shock at 42°C for 90 s, incubation on ice for 2 min, and addition of SOC media (1600 µL) followed by incubation with shaking for 1 h at 37°C. […] Analysis of activity was monitored as described in homotypic ToxR assays. […]

The target of assay [3] is B2. The experiment in a line: dominant-negative ToxR reporter assay; heterotypic; one TMD with functional ToxR (dominant phenotype) and one with non-functional ToxR* (negative phenotype) co-expressed in E. coli FHK12; interaction read as reduction of β-galactosidase signal; normalised to poly-Leu* and to expression levels. Conditions: partners not purified.
For assay [4], the target named is B6. The assay is described as above. Particulars: partners not purified.
Assay [5] deals with B1. Described as above. Conditions: partners not purified.
The target of assay [6] is T1, TLR2 transmembrane domain A597V (ToxR chimera), O60603.
T1 chain: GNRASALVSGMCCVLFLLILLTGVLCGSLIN
The experiment in a line: homotypic ToxR assay. Conditions: chain shown with the change; higher signal = more homotypic TMD association; parent: est. 1.0; read off a plot.

The target in assay [7] is T2, TLR2 transmembrane domain (ToxR chimera).
T2 chain: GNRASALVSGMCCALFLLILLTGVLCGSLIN
The experiment in a line: heterotypic ToxR assay. Conditions: chain shown with the change; competitor TLR2* (nonfunctional ToxR* chimera); PolyLeu* = 1.0; lower signal = more ToxR inhibition = more interaction; parent: est. 0.42; read off a plot.

The target of assay [8] is T3, TLR5 transmembrane domain (ToxR chimera).
T3 chain: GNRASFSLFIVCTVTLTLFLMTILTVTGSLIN
The experiment in a line: heterotypic ToxR assay. Conditions: chain shown with the change; competitor TLR5* (nonfunctional ToxR* chimera); PolyLeu* = 1.0; lower signal = more ToxR inhibition = more interaction; parent: est. 0.53; read off a plot.

The target of assay [9] is T4, TLR10 transmembrane domain (ToxR chimera).
T4 chain: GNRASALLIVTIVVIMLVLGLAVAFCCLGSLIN
Kind of assay: heterotypic ToxR assay. Particulars: chain shown with the change; competitor TLR10* (nonfunctional ToxR* chimera); PolyLeu* = 1.0; lower signal = more ToxR inhibition = more interaction; parent: est. 0.41; read off a plot.

Assay [10] deals with T5, TLR4 transmembrane domain (ToxR chimera).
T5 chain: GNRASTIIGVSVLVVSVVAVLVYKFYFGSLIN
The experiment in a line: heterotypic ToxR assay. Particulars: chain shown with the change; competitor TLR4* (nonfunctional ToxR* chimera); PolyLeu* = 1.0; lower signal = more ToxR inhibition = more interaction; parent: est. 0.90; read off a plot.

Assay [11] deals with T6, TLR6 transmembrane domain (ToxR chimera).
T6 chain: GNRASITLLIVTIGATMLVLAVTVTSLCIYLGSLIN
Kind of assay: heterotypic ToxR assay. Particulars: chain shown with the change; competitor TLR6* (nonfunctional ToxR* chimera); PolyLeu* = 1.0; lower signal = more ToxR inhibition = more interaction; parent: est. 0.24; read off a plot.

Assay [12] has as its target T7, TLR1 transmembrane domain (ToxR chimera).
T7 chain: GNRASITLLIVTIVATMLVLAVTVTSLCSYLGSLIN
The experiment in a line: heterotypic ToxR assay. Particulars: chain shown with the change; competitor TLR1* (nonfunctional ToxR* chimera); PolyLeu* = 1.0; lower signal = more ToxR inhibition = more interaction; parent: est. 0.47; read off a plot.

No end group written: not given here.

Turning to “TLR2 C609I: TLR2 TMD ToxR construct with point mutation Cys609Ile (GNRASALVSGMCCALFLLILLTGVLIGSLIN; cysteine pairing not given here; also: fused to ToxR activation domain and maltose binding protein, ends not given here)”, the “Effect of TLR2 point mutation on homotypic interaction” value in [1] was “no mutation demonstrated significant difference from the wild type TLR2 TMD”. In addition, in assay [2], the “Effect of TLR2 point mutation on heterotypic interactions” value is “capable of reducing the ToxR inhibition demonstrated by the native TLR2 TMD”.

Take “TLR2 A597V: TLR2 TMD ToxR construct with point mutation Ala597Val (GNRASALVSGMCCVLFLLILLTGVLCGSLIN; cysteine pairing not given here; also: fused to ToxR activation domain and maltose binding protein, ends not given here)”: in assay [1], the “Effect of TLR2 point mutation on homotypic interaction” value is listed as “no mutation demonstrated significant difference from the wild type TLR2 TMD”. In [2], the “Effect of TLR2 point mutation on heterotypic interactions” value is recorded as “capable of reducing the ToxR inhibition demonstrated by the native TLR2 TMD”.

Regarding B1, the “reduction in signal from the homotypic interaction” value (shortened to “reduction in signal”) in [3] and in assay [4] was over 60% each time.

As to B2, the “reduction in signal” value in [5] and in [4] was over 60% in each case.

B3: TLR10 transmembrane domain (ToxR chimera) (domain or fragment, human)
chain: GNRASALLIVTIVVIMLVLGLAVAFCCLGSLIN
notes: flank encoded by the reading frame of the plasmid construct; Toll-like receptor 10 transmembrane domain, human, as identified by hydrophobic analysis; One molecule for the ToxR and the ToxR* form of this TMD; also called TLR10 TMD; source: E. coli FHK12, transformed with pTox7 or pTox6 plasmid, in the cells' membrane
B3: the “reduction in signal” value in [5], in assay [3] and in assay [4] was over 60% each time.

B4: TLR2 transmembrane domain (ToxR chimera) A597V (peptide)
chain: GNRASALVSGMCCVLFLLILLTGVLCGSLIN
With B4, the response (normalized Miller units) in assay [6] worked out at 1; in assay [7], 0.8; in assay [8], 1; in [9], 1.2; in assay [10] it was 1.1; in assay [11] it was 0.82. Moreover, the response (normalized Miller units) in [12] was 1.

B5: TLR2 transmembrane domain (ToxR chimera) G593V (peptide)
chain: GNRASALVSVMCCALFLLILLTGVLCGSLIN
Take B5: the response (normalized Miller units) in assay [7] came to 0.44; in [8], 0.48; in [9], 0.5; in [10] it was 0.95; in [11], 0.54; in assay [12] it was 0.58.

As to B6, the “reduction in signal” value in assay [5] and in assay [3] was over 60% in each case.
